Test results reported in patent US20220064648, “NOVEL X-[…] FOR THE USE IN DETECTION OF SNAP25” (Galderma Holding S.A., published 2022).

T1: SNAP25 Peptide 1 (PEP1) (Homo sapiens, UniProt P60880 SEQ:1-35)
T1 chain: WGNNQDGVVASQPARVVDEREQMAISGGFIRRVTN

T2: SNAP25 Peptide 3 (PEP3; only a fragment of it is a SNAP25 subsequence) (Homo sapiens, UniProt P60880 SEQ:1-33)
T2 chain: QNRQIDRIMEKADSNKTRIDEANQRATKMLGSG

B1: PEP 1.03 (ssDNA)
DNA: TTTTTAACACGACGGGGGTTCGGGCAGCGAACAGATGGGCGGTGGGCCCATG
modifications: W indole, X amine, Y phenol modified dU [19,20,36]
B2: PEP 1.04 (ssDNA)
DNA: TTTTTAACACGACGCTCCTGTGACAGCCGAACATCATTGGTGTCGTGCCATG
modifications: W indole, X amine, Y phenol modified dU [16,19,34,38,43,46]
B3: PEP 1.05 (ssDNA)
DNA: TTTTTAAGCCCACCAAGCTGTGGCGGGCACAGGGCAGCATCGTCGTGCCATG
modifications: W indole, X amine, Y phenol modified dU [19,40,43,46]
B4: PEP 1.06 (ssDNA)
DNA: TTTTTAAGCCCACCTCAGTTCGCTCATCGAACGACGATGCTGTGGGCCCATG
modifications: W indole, X amine, Y phenol modified dU [15,20 (Y phenol dU); 19,24,38 (W indole dU); 27 (X amine dU)]
B5: PEP 1.07 (ssDNA)
DNA: TTTTTAACACGACTCAACTGTGATTCCCACAGACTGGGCTCGTGGGCCCATG
modifications: W indole, X amine, Y phenol modified dU [14,25 (X amine dU); 19,35 (Y phenol dU); 24,40 (W indole dU)]
B6: PEP 1.08 (ssDNA)
DNA: TTTTTAACACGACCCCGGTTCGACTCCCACAGAGCGGGGGTGTCGTGCCATG
modifications: W indole, X amine, Y phenol modified dU [19 (W indole dU); 20,46 (Y phenol dU); 25,43 (X amine dU)]
B7: PEP 1.09 (ssDNA)
DNA: TTTTTAACACGACTTATCTGTGTCAGTCGAACGTCGCGGAGGTGGGCCCATG
modifications: W indole, X amine, Y phenol modified dU [14,27 (X amine dU); 15,19,34 (Y phenol dU); 17,23 (W indole dU)]
B8: PEP 1.10 (ssDNA)
DNA: TTTTTAACACGACGGGCGTTCGCTGGTCGAACACCAATGCTGTGGGCCCATG
modifications: W indole, X amine, Y phenol modified dU [19,24,38 (W indole dU); 20 (Y phenol dU); 27 (X amine dU)]
B9: PEP 1.11 (ssDNA)
DNA: TTTTTAACACGACGCCAGTTCGAAGGTCACAGTTATTTGGCGTCGTGCCATG
modifications: W indole, X amine, Y phenol modified dU [19,36,38 (W indole dU); 20,34,46 (Y phenol dU); 27,43 (X amine dU)]
B10: PEP 1.12 (ssDNA)
DNA: TTTTTAAGCCCACAAAAGTTCGATCAGCACAGGTCGCCAAAGTCGTGCCATG
modifications: W indole, X amine, Y phenol modified dU [19,24 (W indole dU); 20,34,46 (Y phenol dU); 43 (X amine dU)]
B11: PEP 1.14 (ssDNA)
DNA: TTTTTAAGCCCACCTGACTGTGGTGGGCACAGTTCGCCATCGTGGGCCCATG
modifications: W indole, X amine, Y phenol modified dU [15,19,34 (Y phenol dU); 24,40 (W indole dU)]
B12: PEP 1.15 (ssDNA)
DNA: TTTTTAAGCCCACCTCTCTGTGGGAGACACAGTTATTGCAGGTGGGCCCATG
modifications: W indole, X amine, Y phenol modified dU [15,19,34 (Y phenol dU); 17,36 (W indole dU)]
B13: PEP 1.16 (ssDNA)
DNA: TTTTTAACACGACGGGCCTGTGAACACCGAACTGATGGGTCGTGGGCCCATG
modifications: W indole, X amine, Y phenol modified dU [19 (Y phenol dU); 36,40 (W indole dU)]
B14: PEP 1.17 (ssDNA)
DNA: TTTTTAACACGACGGCGGTTCGCCTCCCGAACGTTGTTGGAGTCGTGCCATG
modifications: W indole, X amine, Y phenol modified dU [19,38 (W indole dU); 20,34,35,46 (Y phenol dU); 25,43 (X amine dU)]
B15: PEP 1.18 (ssDNA)
DNA: TTTTTAACACGACCACCCTGTGCAAGGCGAACTCCGTCAAAGTGGGCCCATG
modifications: W indole, X amine, Y phenol modified dU [19]
B16: PEP 1.19 (ssDNA)
DNA: TTTTTAACACGACATAGCTGTGACAGGCACAGGTCATGGGAGTCGTGCCATG
modifications: W indole, X amine, Y phenol modified dU [15,19,34,43,46]
B17: PEP 1.20 (ssDNA)
DNA: TTTTTAACACGACGAACCTGTGCTCAACACAGAACATCACAGTGGGCCCATG
modifications: W indole, X amine, Y phenol modified dU [19,24]
B18: PEP 1.21 (ssDNA)
DNA: TTTTTAAGCCCACCGGTCTGTGGTTCCCACAGTGCATGCGAGTGGGCCCATG
modifications: W indole, X amine, Y phenol modified dU [17,19,24,25]
B19: PEP 1.22 (ssDNA)
DNA: TTTTTAACACGACTTGGGTTCGGAAGGCGAACCGCAGCAATGTGGGCCCATG
modifications: W indole, X amine, Y phenol modified dU [14,15,19,20]
B20: PEP 1.23 (ssDNA)
DNA: TTTTTAAGCCCACTTCACTGTGGCTCGCACAGGCCGATGGGGTCGTGCCATG
modifications: W indole, X amine, Y phenol modified dU [14,15,19,25,38,43,46]
B21: PEP 1.24 (ssDNA)
DNA: TTTTTAACACGACCGCCCTGTGGGCAACACAGGGATCTGCAGTCGTGCCATG
modifications: W indole, X amine, Y phenol modified dU [19,36,38,43,46]
B22: PEP 1.01 (ssDNA)
DNA: TTTTTAACACGACGCGACTGTGAGAGGCACAGTTTGGGGGCGTGGGCCCATG
modifications: W indole, X amine, Y phenol modified dU [19,34,35]
B23: PEP 1.02 (ssDNA)
DNA: TTTTTAACACGACCATCCTGTGCCTCACGAACTCATTGCCCGTCGTGCCATG
modifications: W indole, X amine, Y phenol modified dU [16,19,25,36,43,46]
B24: PEP 3.22 (ssDNA)
DNA: TTTTTAACACGACATCACTGTGGAAGACACAGGACGTGCGTGTCGTGCCATG
modifications: W indole, X amine, Y phenol modified dU [15, 19, 46 (phenol dU), 43 (amine dU)]
B25: PEP 3.23 (ssDNA)
DNA: TTTTTAAGCCCACCTCACTGTGCAAGTCACAGGTCGGCACCGTGGGCCCATG
modifications: W indole, X amine, Y phenol modified dU [15, 19, 34 (phenol dU), 27 (amine dU)]
B26: PEP 3.24 (ssDNA)
DNA: TTTTTAAGCCCACCAGGGTTCGGGAGCCGAACGCCAGCACTGTCGTGCCATG
modifications: W indole, X amine, Y phenol modified dU [19,20,43,46]
B27: PEP 4.01 (ssDNA)
DNA: TTTTTAAGCCCACAAGCGTTCGGCTCTCACAGATCGTTGACGTGGGCCCATG
B28: PEP 4.02 (ssDNA)
DNA: TTTTTAAGCCCACTACTGTTCGAAGGGCACAGTCCAGGCCGGTGGGCCCATG
B29: PEP 4.03 (ssDNA)
DNA: TTTTTAACACGACAGGGGTTCGTAGGACACAGGTTGATGTTGTGGGCCCATG
B30: PEP 4.04 (ssDNA)
DNA: TTTTTAAGCCCACGATCCTGTGCTTCGCACAGCTCGAGCTAGTGGGCCCATG
B31: PEP 4.05 (ssDNA)
DNA: TTTTTAAGCCCACATAAGTTCGCAAGTCACAGCGATGTGATGTCGTGCCATG
B32: PEP 4.06 (ssDNA)
DNA: TTTTTAAGCCCACGAGAGTTCGATAGTCACAGATTGGCACCGTCGTGCCATG
B33: PEP 4.07 (ssDNA)
DNA: TTTTTAAGCCCACTCGTGTTCGCACACCGAACCACAAGCTAGTGGGCCCATG
B34: PEP 4.08 (ssDNA)
DNA: TTTTTAACACGACCATTCTGTGCCAGCCGAACTCCGTGCTGGTGGGCCCATG
B35: PEP 4.09 (ssDNA)
DNA: TTTTTAACACGACATATGTTCGACGGACACAGTGTGTGGCGGTCGTGCCATG
B36: PEP 4.10 (ssDNA)
DNA: TTTTTAAGCCCACAAGACTGTGCGTCGCACAGATTGGCATCGTCGTGCCATG
B37: PEP 4.11 (ssDNA)
DNA: TTTTTAAGCCCACCCGAGTTCGTCCAGCGAACCACGCGCGTGTCGTGCCATG
B38: PEP 4.12 (ssDNA)
DNA: TTTTTAACACGACAGCCCTGTGCAGGCCGAACGGCGTTGATGTCGTGCCATG
B39: PEP 4.13 (ssDNA)
DNA: TTTTTAAGCCCACGGCCGTTCGGCCACCACAGTGTGGCAGCGTCGTGCCATG
B40: PEP 4.14 (ssDNA)
DNA: TTTTTAAGCCCACAAAAGTTCGGGCAGCACAGGTCGCTGAGGTCGTGCCATG
B41: PEP 4.15 (ssDNA)
DNA: TTTTTAACACGACGTGACTGTGAGAGGCACAGTTTGGGGGCGTGGGCCCATG
B42: PEP 4.16 (ssDNA)
DNA: TTTTTAACACGACAGACCTGTGATGGTCGAACTCCATGCATGTGGGCCCATG
B43: PEP 4.17 (ssDNA)
DNA: TTTTTAAGCCCACGCCAGTTCGGTCAACGAACTACGGTGATGTGGGCCCATG
B44: PEP 4.18 (ssDNA)
DNA: TTTTTAACACGACTATTCTGTGAGTCTCGAACTGCGACAACGTGGGCCCATG
B45: PEP 4.19 (ssDNA)
DNA: TTTTTAAGCCCACAAGCGTTCGGCTCTCATAGATCGTTGACGTGGGCCCATG
B46: PEP 4.20 (ssDNA)
DNA: TTTTTAAGCCCACACGTGTTCGGATCGCACAGTTATTGGCAGTCGTGCCATG
B47: PEP 4.21 (ssDNA)
DNA: TTTTTAAGCCCACGGGGCTGTGAGCAACGAACATTGGCACAGTCGTGCCATG
B48: PEP 4.22 (ssDNA)
DNA: TTTTTAAGCCCACGGTGCTGTGGAAGCCACAGTACAATGGAGTGGGCCCATG

Target: T1, SNAP25 Peptide 1 (PEP1)
Experiment: ELONA
Conditions: not given
Excerpt: (§1) The data in Table 2 was collected by running direct ELISA assays on the 96 X-aptamers, elucidating their ability to bind SNAP25, SNAP25 fragments (PEP1, PEP2, PEP3, and PEP4), and a negative control. The X-aptamers were biotinylated and immobilized onto streptavidin-coated plates and were utilized as detection molecules. Higher numbers represent strong binding. The negative control peptide is a random peptide to measure the amount of binding that occurs to a random amino acid sequence.

First: B1
Second: B2
The binding signal of the first is higher: 677 ELISA signal for the first, 645 ELISA signal for the second.

Going from B3 to B4, the binding signal falls from 641 ELISA signal to 477 ELISA signal.

Going from B5 to B6, the binding signal falls from 429 ELISA signal to 357 ELISA signal.

Going from B7 to B8, the binding signal falls from 337 ELISA signal to 293 ELISA signal.

First: B9
Second: B10
The binding signal of the first is higher: 293 ELISA signal for the first, 289 ELISA signal for the second.

Going from B11 to B12, the binding signal falls from 241 ELISA signal to 220 ELISA signal.

Compared with B13, B14 is lower in binding signal: 212 ELISA signal for the first, 200 ELISA signal for the second.

B15 and B16 are the same in binding signal: 200 ELISA signal for the first, 200 ELISA signal for the second.

B17 and B18 are the same in binding signal: 188 ELISA signal for the first, 188 ELISA signal for the second.

Going from B19 to B20, the binding signal falls from 184 ELISA signal to 168 ELISA signal.

Going from B21 to B22, the binding signal rises from 160 ELISA signal to 2240 ELISA signal.

Binder B23 has a binding signal of 742 ELISA signal.

Target: T2, SNAP25 Peptide 3 (PEP3; only a fragment …)
Experiment: ELONA
Conditions: not given
Excerpt: as §1

First: B24
Second: B25
The binding signal of the first is higher: 96 ELISA signal for the first, 95 ELISA signal for the second.

For B26, the binding signal was 81 ELISA signal.

The binders below were run against SNAP25 Peptide 4 (PEP4, BoNT/A cleavage site region) (Homo sapiens, UniProt P60880 SEQ:1-24) (assay: ELONA). Conditions: label: biotin.

Compared with B27, B28 is lower in binding signal: 257 ELISA signal for the first, 208 ELISA signal for the second.

First: B29
Second: B30
The binding signal of the first is higher: 202 ELISA signal for the first, 186 ELISA signal for the second.

Going from B31 to B32, the binding signal falls from 170 ELISA signal to 131 ELISA signal.

Going from B33 to B34, the binding signal falls from 105 ELISA signal to 94 ELISA signal.

Going from B35 to B36, the binding signal falls from 85 ELISA signal to 76 ELISA signal.

Compared with B37, B38 is lower in binding signal: 67 ELISA signal for the first, 61 ELISA signal for the second.

First: B39
Second: B40
The binding signal of the first is higher: 57 ELISA signal for the first, 37 ELISA signal for the second.

Compared with B41, B42 is lower in binding signal: 37 ELISA signal for the first, 35 ELISA signal for the second.

First: B43
Second: B44
The binding signal of the first is higher: 24 ELISA signal for the first, 18 ELISA signal for the second.

B45 and B46 are the same in binding signal: 18 ELISA signal for the first, 18 ELISA signal for the second.

Going from B47 to B48, the binding signal falls from 18 ELISA signal to 17 ELISA signal.
